# Laboratory results taken from patent WO2025026282A1 (dated 2025).
# Key:
# Human PD-L1 = target: T1, Human PD-L1 (human, UniProt Q9NZQ7 19-238, limits assumed); assay: BLI (Octet R8), human PD-L1
# T1 construct: Diluted to 2 ug/ml in KB buffer for BLI; construct not described
# human CD3 epsilon = target: T2, human CD3 epsilon (human, UniProt P07766 23-126, limits assumed); assay: SPR (Biacore), antigen captured, antibody as analyte
# T2 construct: the same molecule is used here for both
# T2 sequence (P07766 23-126 limits assumed): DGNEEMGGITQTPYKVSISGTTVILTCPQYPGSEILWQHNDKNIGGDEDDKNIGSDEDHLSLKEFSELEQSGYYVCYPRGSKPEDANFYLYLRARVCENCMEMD
# T1 sequence (Q9NZQ7 19-238 limits assumed): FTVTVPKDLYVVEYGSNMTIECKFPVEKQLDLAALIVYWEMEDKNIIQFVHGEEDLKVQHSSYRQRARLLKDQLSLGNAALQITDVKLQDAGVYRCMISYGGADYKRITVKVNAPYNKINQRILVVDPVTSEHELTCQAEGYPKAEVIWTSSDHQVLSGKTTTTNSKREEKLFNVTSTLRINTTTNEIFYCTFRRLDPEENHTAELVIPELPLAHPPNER
Kd (Human PD-L1) [nM],Kd (human CD3 epsilon) [nM],Binder
72.8,,12A69 (other) chain 1: QAVVTQEPSLTVSPGGTVTLTCRSSTGAVTTSNYANWVQQKPGQAPRGLIGGTNKRAPWTPARFSGSLLGGKAALTLSGAQAEDEADYYCALWYSNLWVFGGGTKLTVLRTVAAQVQLVQSGAEVKKPGSSVKVSCKTSGDTFSSYAISWVRDAPGQCLEWMGGIIPIFGKAHYAQKFQGRVTITADESTSTAYMELSSLRSEDTAVYFCARKFHFVSGSPFGMDVWGQGTTVTVSSASEPKSSDKTHTCPPCPAPPVAGPSVFLFPPKPKDTLMISRTPEVTCVVVDVSQEDPEVKFNWYVDGVEVHNAKTKPREEQFNSTYRVVSVLTVLHQDWLNGKEYKCKVSNKGLPSSIEKTISKAKGQPREPQVYTLPPSRDELTKNQVSLWCLVKGFYPSDIAVEWESNGQPENNYKTTPPVLDSDGSFFLYSKLTVDKSRWQQGNVFSCSVMHEALHNHYTQKSLSLSP chain 2: EVQLVESGGGLVQPGGSLRLSCAASGFTFTDYYMNWVRQAPGKALEWLGFIRNKVNGDTTEYAASVKGRFTISRDDSKNSLYLQMNSLKTEDTAVYYCARDKGIAYYFDYWGQGTLVTVSSASTKGPSVFPLAPSSKSTSGGTAALGCLVKDYFPEPVTVSWNSGALTSGVHTFPAVLQSSGLYSLSSVVTVPSSSLGTQTYICNVNHKPSNTKVDKKVEPKSCDGGGGSGGGGSEIVLTQSPATLSLSPGERATLSCRASQSVSSYLAWYQKKPGQAPRLLIYDASNRATGIPARFSGSGSGTDFTLTISSLEPEDFAVYYCQQRSNAPTFGCGTKVEIKRTVAAEVQLVESGGGLVQPGGSLRLSCAASGFTFSTYAMNWVRQAPGKGLEWVGRIRSKYNNYATYYADSVKGRFTISRDDSKNSLYLQMNSLRAEDTAVYYCVRHGNFGTSYVSWFAYWGQGTLVTVSS chain 3: EVQLVESGGGLVQPGGSLRLSCAASGFTFTDYYMNWVRQAPGKALEWLGFIRNKVNGDTTEYAASVKGRFTISRDDSKNSLYLQMNSLKTEDTAVYYCARDKGIAYYFDYWGQGTLVTVSSASTKGPSVFPLAPSSKSTSGGTAALGCLVKDYFPEPVTVSWNSGALTSGVHTFPAVLQSSGLYSLSSVVTVPSSSLGTQTYICNVNHKPSNTKVDKKVEPKSCDKTHTCPPCPAPPVAGPSVFLFPPKPKDTLMISRTPEVTCVVVDVSQEDPEVKFNWYVDGVEVHNAKTKPREEQFNSTYRVVSVLTVLHQDWLNGKEYKCKVSNKGLPSSIEKTISKAKGQPREPQVYTLPPSRDELTKNQVSLSCAVKGFYPSDIAVEWESNGQPENNYKTTPPVLDSDGSFFLVSKLTVDKSRWQQGNVFSCSVMHEALHNRFTQKSLSLSP chain 4: EIVLTQSPATLSASPGERATLSCRASQSVSYIHWYQQKPGQSPRPWIHGTSNLATGVPARFSGSGSGTDFTLTISSLEPEDAAVYYCQQWSSNLSTFGGGTKVEIKRTVAAPSVFIFPPSDEQLKSGTASVVCLLNNFYPREAKVQWKVDNALQSGNSQESVTEQDSKDSTYSLSSTLTLSKADYEKHKVYACEVTHQGLSSPVTKSFNRGEC
,118,12A44 (other) chain 1: QAVVTQEPSLTVSPGGTVTLTCRSSTGAVTTSNYANWVQQKPGQAPRGLIGGTNKRAPWTPARFSGSLLGGKAALTLSGAQAEDEADYYCALWYSNLWVFGGGTKLTVLRTVAAQVQLVQSGAEVKKPGSSVKVSCKTSGDTFSSYAISWVRDAPGQCLEWMGGIIPIFGKAHYAQKFQGRVTITADESTSTAYMELSSLRSEDTAVYFCARKFHFVSGSPFGMDVWGQGTTVTVSSASEPKSSDKTHTCPPCPAPPVAGPSVFLFPPKPKDTLMISRTPEVTCVVVDVSQEDPEVKFNWYVDGVEVHNAKTKPREEQFNSTYRVVSVLTVLHQDWLNGKEYKCKVSNKGLPSSIEKTISKAKGQPREPQVYTLPPSRDELTKNQVSLWCLVKGFYPSDIAVEWESNGQPENNYKTTPPVLDSDGSFFLYSKLTVDKSRWQQGNVFSCSVMHEALHNHYTQKSLSLSP chain 2: EVQLVESGGGLVQPGGSLRLSCAASGFTFTDYYMNWVRQAPGKALEWLGFIRNKVNGDTTEYAASVKGRFTISRDDSKNSLYLQMNSLKTEDTAVYYCARDKGIAYYFDYWGQGTLVTVSSASTKGPSVFPLAPSSKSTSGGTAALGCLVKDYFPEPVTVSWNSGALTSGVHTFPAVLQSSGLYSLSSVVTVPSSSLGTQTYICNVNHKPSNTKVDKKVEPKSCDGGGGSGGGGSEIVLTQSPATLSLSPGERATLSCRASQSVSSYLAWYQKKPGQAPRLLIYDASNRATGIPARFSGSGSGTDFTLTISSLEPEDFAVYYCQQRSNWPTFGCGTKVEIKRTVAAEVQLVESGGGLVQPGGSLRLSCAASGFTFSTYAMNWVRQAPGKGLEWVGRIRSQYNNYATYYADSVKGRFTISRDDSKNSLYLQMNSLRAEDTAVYYCVRHGNFGTSYVSWFAYWGQGTLVTVSS chain 3: EVQLVESGGGLVQPGGSLRLSCAASGFTFTDYYMNWVRQAPGKALEWLGFIRNKVNGDTTEYAASVKGRFTISRDDSKNSLYLQMNSLKTEDTAVYYCARDKGIAYYFDYWGQGTLVTVSSASTKGPSVFPLAPSSKSTSGGTAALGCLVKDYFPEPVTVSWNSGALTSGVHTFPAVLQSSGLYSLSSVVTVPSSSLGTQTYICNVNHKPSNTKVDKKVEPKSCDKTHTCPPCPAPPVAGPSVFLFPPKPKDTLMISRTPEVTCVVVDVSQEDPEVKFNWYVDGVEVHNAKTKPREEQFNSTYRVVSVLTVLHQDWLNGKEYKCKVSNKGLPSSIEKTISKAKGQPREPQVYTLPPSRDELTKNQVSLSCAVKGFYPSDIAVEWESNGQPENNYKTTPPVLDSDGSFFLVSKLTVDKSRWQQGNVFSCSVMHEALHNRFTQKSLSLSP chain 4: EIVLTQSPATLSASPGERATLSCRASQSVSYIHWYQQKPGQSPRPWIHGTSNLATGVPARFSGSGSGTDFTLTISSLEPEDAAVYYCQQWSSNLSTFGGGTKVEIKRTVAAPSVFIFPPSDEQLKSGTASVVCLLNNFYPREAKVQWKVDNALQSGNSQESVTEQDSKDSTYSLSSTLTLSKADYEKHKVYACEVTHQGLSSPVTKSFNRGEC
,176,"12A46 (other, Kabat position; choice of chain inferred; also called V100C A (12A46)) chain 1: QAVVTQEPSLTVSPGGTVTLTCRSSTGAVTTSNYANWVQQKPGQAPRGLIGGTNKRAPWTPARFSGSLLGGKAALTLSGAQAEDEADYYCALWYSNLWVFGGGTKLTVLRTVAAQVQLVQSGAEVKKPGSSVKVSCKTSGDTFSSYAISWVRDAPGQCLEWMGGIIPIFGKAHYAQKFQGRVTITADESTSTAYMELSSLRSEDTAVYFCARKFHFVSGSPFGMDVWGQGTTVTVSSASEPKSSDKTHTCPPCPAPPVAGPSVFLFPPKPKDTLMISRTPEVTCVVVDVSQEDPEVKFNWYVDGVEVHNAKTKPREEQFNSTYRVVSVLTVLHQDWLNGKEYKCKVSNKGLPSSIEKTISKAKGQPREPQVYTLPPSRDELTKNQVSLWCLVKGFYPSDIAVEWESNGQPENNYKTTPPVLDSDGSFFLYSKLTVDKSRWQQGNVFSCSVMHEALHNHYTQKSLSLSP chain 2: EVQLVESGGGLVQPGGSLRLSCAASGFTFTDYYMNWVRQAPGKALEWLGFIRNKVNGDTTEYAASVKGRFTISRDDSKNSLYLQMNSLKTEDTAVYYCARDKGIAYYFDYWGQGTLVTVSSASTKGPSVFPLAPSSKSTSGGTAALGCLVKDYFPEPVTVSWNSGALTSGVHTFPAVLQSSGLYSLSSVVTVPSSSLGTQTYICNVNHKPSNTKVDKKVEPKSCDGGGGSGGGGSEIVLTQSPATLSLSPGERATLSCRASQSVSSYLAWYQKKPGQAPRLLIYDASNRATGIPARFSGSGSGTDFTLTISSLEPEDFAVYYCQQRSNWPTFGCGTKVEIKRTVAAEVQLVESGGGLVQPGGSLRLSCAASGFTFSTYAMNWVRQAPGKGLEWVGRIRSKYNNYATYYADSVKGRFTISRDDSKNSLYLQMNSLRAEDTAVYYCVRHGNFGTSYASWFAYWGQGTLVTVSS heavy: EVQLVESGGGLVQPGGSLRLSCAASGFTFTDYYMNWVRQAPGKALEWLGFIRNKVNGDTTEYAASVKGRFTISRDDSKNSLYLQMNSLKTEDTAVYYCARDKGIAYYFDYWGQGTLVTVSSASTKGPSVFPLAPSSKSTSGGTAALGCLVKDYFPEPVTVSWNSGALTSGVHTFPAVLQSSGLYSLSSVVTVPSSSLGTQTYICNVNHKPSNTKVDKKVEPKSCDKTHTCPPCPAPPVAGPSVFLFPPKPKDTLMISRTPEVTCVVVDVSQEDPEVKFNWYVDGVEVHNAKTKPREEQFNSTYRVVSVLTVLHQDWLNGKEYKCKVSNKGLPSSIEKTISKAKGQPREPQVYTLPPSRDELTKNQVSLSCAVKGFYPSDIAVEWESNGQPENNYKTTPPVLDSDGSFFLVSKLTVDKSRWQQGNVFSCSVMHEALHNRFTQKSLSLSP light: EIVLTQSPATLSASPGERATLSCRASQSVSYIHWYQQKPGQSPRPWIHGTSNLATGVPARFSGSGSGTDFTLTISSLEPEDAAVYYCQQWSSNLSTFGGGTKVEIKRTVAAPSVFIFPPSDEQLKSGTASVVCLLNNFYPREAKVQWKVDNALQSGNSQESVTEQDSKDSTYSLSSTLTLSKADYEKHKVYACEVTHQGLSSPVTKSFNRGEC"
